In the nanobody polyreactivity screen of Harvey et al. (2022):

Experiment: yeast display, Sf9 membrane polyspecificity reagent, FACS + sequencing; frameworks hold sequencing errors
Outline: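 Synthetic nanobody libraries on Saccharomyces cerevisiae BJ5465 were galactose-induced for 36–48 hours, stained 1 hour at 4 °C with 10% biotinylated, detergent-solubilized Sf9 membrane reagent and enriched on streptavidin microbeads. FACS then separated cells into low and high (top ~1%) gates by anti-HA (expression) and streptavidin (reagent binding) fluorescence. Genes were colony-PCR amplified, MiSeq 2 × 250 sequenced and CDR-length filtered. A clone's polyreactivity label is that of its gate of origin.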

Sequence: QVQLVESGGVLVQARGSLRLSCAASGRTFRYYAMGWYRQAPGQEREMVATISWSGGRTSYADSVKGRFTISRDNAKNTVYLQMNSLKPEDTAVYDCAVESWLDADDSYPDSILVDYWGQGTQVTVSS
- polyreactivity (PSR sort gate): low polyreactivity

Sequence: QVQLVESGGGLVQAGGSLRLSCAASGSIFRFYAMGWYRQAPGKERELVATISKRGGTTYYADSVKGRFTISRDNAKNTVYLQMNSLKPEDTAVYYCAVRLYLEMDYWGQGTPVTVSS
- polyreactivity (PSR sort gate): high polyreactivity

Sequence: QVQLVESAGGLVQAGGSLRLSCAASGRTLTRYTMGWYRQAPGKERELVAAITSGGSTYYADSVKGRFTISRDNAKNTVYLQKNSLKPEDTAVYYCNARTPWWSFSITEYGYWGQGTLVTVSS
- polyreactivity (PSR sort gate): high polyreactivity

Sequence: QVQLVESGGGLVQAGGSLRLSCAASGSTFVFNAMGWYRPAPGKERELVAAISSTGSTYYADSVKGRFTISRDNAKNTVYLQMNSLKPEDTAVYYCAAPYGFSYKGATYDSWGQGTQVTVSS
- polyreactivity (PSR sort gate): high polyreactivity

Sequence: QVQLVESGGGLVQAGGSLRISCDASGRTFYVYDRGWYRQAPGKERELVAVISSSGSTNYADSVKGRFTISRDNAKNTVYLQMNSLKPEDTAVYYCNRRRWYFFSLDYWGQGTQVTVSS
- polyreactivity (PSR sort gate): high polyreactivity

Sequence: QVQLVESGGGLVQAGGSLRLSCAASGSIFLRNAMGWYRQAPGKERELVAAITNSSGSTYYADSVKGRFTISRDNAKNTVYLQMNSLKPEDTAVYYCAATSRSSRRYYYWGQGTQVTVSS
- polyreactivity (PSR sort gate): high polyreactivity

Sequence: QVQLVESGGGLVQAGGSLRLSCAASGIFLVYAMGWYRQAPGKERELVAAIRSDASTNYADSVKGRFTISRDNAKNTVYLQMNILKPEDTAVYYCNTAQLVSDEFDYWGQGTQVTVSS
- polyreactivity (PSR sort gate): low polyreactivity

Sequence: QVQLVESGGGLVQAGGSLRLSCAASGRTFSTYAMGWYRQAPGKERELVAAKSSGGGRTYYADSVKGRFTISRDNAKNTVYLQMNSLKPEDTAVYYCAADRYFRSRRSYEYWGQGTQVTVSS
- polyreactivity (PSR sort gate): low polyreactivity

Sequence: QVHLVESGGGLVQAGGSLRLSCAASGLIFRKYAMGWYRQAPGKERELVAAISSGGDTNYADSVKGRFTISRDNAKNTVYLQMNSLKPEDTAVYYCNADRKYWYGIALEYWGQGTQVTVSS
- polyreactivity (PSR sort gate): high polyreactivity

Sequence: QVQLVESGGGLVQAGGSLRLSCAASGLIFYRYTMGWNRQAPGKERELVAGITSGGRTYYADSVKGRFTISRDNAKNTFYLQMNSLKPEDTAVYYCAARYFPARTRYYYWGQGTQVTVSS
- polyreactivity (PSR sort gate): high polyreactivity

Sequence: QVQLVESGGGLVQAGGSLRLSCAASGFIFWKYAMGWYRQAPGKEREFVAAINWRGDRTYYADSVKGRFTISRDNAKNTVYLQMNSLKPEDTAVYYCAAVVGYYHRRFDYWGQGTQVTVSS
- polyreactivity (PSR sort gate): high polyreactivity

Sequence: QVQHVESGGGLVQAGGSLRLSCAASGFILDTYGMGWYRQAPGKERELVAAISQSDVSTYYADSVKGRFTISRDNAKNTVDLQMNSLKPEDTAVYDCAADRGGLRWFWQVLYDYWGQGTQVTVSS
- polyreactivity (PSR sort gate): low polyreactivity

Sequence: QVQLVESGGGLVQAGGSLRLSCAASGRTFYDNTMGWYRQAPGKERELVAAISRGGSTYADSVEGRFTISRDNAKNTVYLQMNSLKPEDTAVYYCNKRSITTEYGYWGQGTQVTVSS
- polyreactivity (PSR sort gate): low polyreactivity

Sequence: QVQLVESGGGLVQAGGSLRLSCAASGRTLRGYAMGWYRKAPGKEREFVAAISSRGGSTYYADSVKGRFTISRDNAKNTVYLQMNSLKPEDTAVYYCAALRPVFATSHARDYWGQGTQVTVSS
- polyreactivity (PSR sort gate): high polyreactivity

Sequence: QVQLLESGGGLVQAGGSLRLSCAASGSIFAYYAMGWYRQAPGKERELVAAISGTGGSTNYADSVKGRFTISRDNAKNTVYLQMNSLKPEDTAVYYCAKDYSFQWRNEFNLAGEYVYWGQGTQVTVSS
- polyreactivity (PSR sort gate): low polyreactivity

Sequence: QVQLVESGGGLVQAGGSLRLSCAASGRTFRSYTMGWYRQAPGKERELVAAISYNGGSTYYADSVKGRFTISRDNAKNTVYLQMNSLKPEDTAVYYCNKDFDGRFDYWGQGTQVTVSS
- polyreactivity (PSR sort gate): high polyreactivity

Sequence: QVQLVESGGGLVQAGGSLRLSCAASGLTFYLYAMGWNRQAPGKERELVAAINSRGGNTYYADSVKGRFTISRDNAKNTVYLQMNSLKPEDTAVYYCNAGRTFYSYAYGYWGQGTQVTVSS
- polyreactivity (PSR sort gate): high polyreactivity

Sequence: QVQLVESGGGLVQAGGSLRISCAASGLTFYYNAMGWYRQAPGKDRELVATITWRGGRTYYADSVKGRFTISRDNAKNTVYLQMNCLKPEDTAVYYCAAGYFSQRLYLWFGYWGQGTQVTVSS
- polyreactivity (PSR sort gate): high polyreactivity

Sequence: QVHLVESGGGLVQAGGSLRLSFAASGRIFYYNAMGWYRQAHGKERELVAAIRGGCSTNYADSVKGRFTISRDNAKNTVYLQMNSLKPEDTAVYYCNTAVWGPHRYDYWGQGTQVTVSS
- polyreactivity (PSR sort gate): low polyreactivity

Sequence: QVQLVESGGGLVQAGGSLRLSCAASGSTFTRYDMGWYRQAPGKERELVAAISKSGGSTYYADSVKGRFTISRDNAKNTVYLQMNSLKPEDTAVYYCARGSTKYHIYSLDYWGQGTQVTVSS
- polyreactivity (PSR sort gate): low polyreactivity

Sequence: QVQLVESGGGLVQAGGSLRLSCAASGNTFWYYAMGWYRQAPGKERELVAAISWDGGITYYADSVKGRFTISRDNAKNTVFLQMNRLKPEDTAVYYCATLIPRKGSRYYHRGYWGQGTQLTVSS
- polyreactivity (PSR sort gate): high polyreactivity

Sequence: QVQLVESGGGLVQAGGSLRLSCAASGFTFSGYAMGWYRQAPGKERELVASISRRGGSTYYADSVKGRFTISRDNAKNTVYLQMNSLKPEDTAVYYCATLRGRLRFGYDYWGQGTQVTVSS
- polyreactivity (PSR sort gate): high polyreactivity

Sequence: QVQLVESGGGLVQAGGSLRLSCAASGRTFRVYAMGWYRQAPGKEREFVAAISYSGGRTYYADSVKGRFTISRDNAKNTVYLQMNSLKPEDTAVYYCAKRVPYGRGVTGYYWGQGTQVTVSS
- polyreactivity (PSR sort gate): high polyreactivity

Sequence: QVQLVESGGGLVQAGGSLRLGCAASGITFNLYAMGWYRQAPGKERELVAAISRSATSTYYADSVKRRFTISRDNAKNTVYLQMNSLKPEDTAVYYCATRGHYRQTINYWGQGTQVTVSS
- polyreactivity (PSR sort gate): high polyreactivity

Sequence: QVQLVESGGGLVQAGGSLRLSCAASGSTFGRYAMGWYRQAPGKERELVAGITSSGRTNYADSVKGRFTISRDNAKNTVYLQMNSLKPEDTAVYYCAKRWLRYGYRYDYWGQGTQVTVSS
- polyreactivity (PSR sort gate): high polyreactivity

Sequence: QVQLVESGGGLVQAGGSLRLSCAASGIIFWYNAMGWYRQAPGKERELVASISTGGRTYYADSVKGRFTISRDNAKYTVYLQMNSLKPEDTAVYYCAAASRVGFLYYYWGQGTQVTVSS
- polyreactivity (PSR sort gate): low polyreactivity

Sequence: QVQLVESGGGLVQAGGSLRLSCAASGFTFRYNAMGWYRQAPGKERELVAAISRGTITNYADSVKGRFTISRDNAKNTVYLQMNSLKPEDTAVYYCAARYPGHFRFYYWGQGTQVTVSS
- polyreactivity (PSR sort gate): high polyreactivity

Sequence: QVQLVESGGGLVQAGGSLRLSCAASGSTFYIYAMGWYRQAPGKERELVAAINSGGGTNYADSVKGRFTISRDNAKNTVYLQMNSLKPEDTAVYYCAKTFYSLYWGQGTQVTVSS
- polyreactivity (PSR sort gate): low polyreactivity

Sequence: QVQLVESGGGLVQAGGSLRLSCAASGRTFHAYAMGGYRQARGKARELVATISTSGTSTYYADSVKGRFTISRDNAKNTVYLQMNSLKAEDTAVYYCGKGPRQDFYFSFEYWGQGTQVTVSS
- polyreactivity (PSR sort gate): high polyreactivity

Sequence: QVQLVESGGGLVQAGGSLRLSCAASGGTFTNYAMGWYRQAPGKERELVAAITDSGATTYYADSVKGRFTISRDNAKNTVYLQMNSLKPEDTAVYYCNAALDLYTDFDYWGQGTQVTVSS
- polyreactivity (PSR sort gate): low polyreactivity

Sequence: QVQLVESGGGLVQAGGSLRLSCAASGSIFNLYTMGWYRQAPGKERELVAVITGGGSTYYADSVKGRFTISRDNAKNTVYLQMNSLKPDDTAVYYCAAKGPYYKSSRTGDYWGQGTQVTVSS
- polyreactivity (PSR sort gate): low polyreactivity

Sequence: QVQLVESGGGLVQAGGSLRLSCAASGITFYRYALGWYRQAPGKERELVAAISSSGGSTYYADSVKGRFTISRDNAKNTVYLQMNSLKPEDTAVYYCATDSLYDYWGQGTQVTVSS
- polyreactivity (PSR sort gate): high polyreactivity
